Data reported in patent US11884740.

Experiments:
[1] = target: FcγIIIA Receptor on the effector cells (human) (UniProt P08637); assay: cell-based or functional assay
[2] = target: C1q Receptor in the complement system (rabbit serum as the source of complement) (rabbit); assay: cell-based or functional assay

Sequence of FcγIIIA Receptor on the effector cells (human) (P08637 17-254): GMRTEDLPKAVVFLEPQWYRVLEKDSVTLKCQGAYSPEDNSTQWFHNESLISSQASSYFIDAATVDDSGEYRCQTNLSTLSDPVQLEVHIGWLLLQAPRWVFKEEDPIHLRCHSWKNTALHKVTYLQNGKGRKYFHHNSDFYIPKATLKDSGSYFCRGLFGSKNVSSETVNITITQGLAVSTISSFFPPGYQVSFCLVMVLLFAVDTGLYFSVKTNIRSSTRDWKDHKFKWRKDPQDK

| EC50 (ADCC, Raji targets, KILR CD16a effector cells) [1] | EC50 of ADCC assay Using Primary NK Cells (Raji targets, LDH release) [1] | EC50 (CDC, Jeko-1 cells, rabbit complement) [2] | Substance |
| --- | --- | --- | --- |
| 0.00658 ng/mL | 19 µg/mL | – | GAZYVA (obinutuzumab) (antibody) |
| 0.0608 ng/mL | – | 1.21 µg/mL | OCREVUS (ocrelizumab) (antibody) |
| 5.46 ng/mL | 1390 µg/mL | 0.245 µg/mL | RITUXAN (rituximab) (antibody) |
| 0.0741 ng/mL | 500 µg/mL | 0.353 µg/mL | ARZERRA (ofatumumab) (antibody) |
